T1: rabies virus glycoprotein (G protein) of strain CVS-11 (rabies virus strain CVS-11, UniProt O92284 20-524)
T1 sequence: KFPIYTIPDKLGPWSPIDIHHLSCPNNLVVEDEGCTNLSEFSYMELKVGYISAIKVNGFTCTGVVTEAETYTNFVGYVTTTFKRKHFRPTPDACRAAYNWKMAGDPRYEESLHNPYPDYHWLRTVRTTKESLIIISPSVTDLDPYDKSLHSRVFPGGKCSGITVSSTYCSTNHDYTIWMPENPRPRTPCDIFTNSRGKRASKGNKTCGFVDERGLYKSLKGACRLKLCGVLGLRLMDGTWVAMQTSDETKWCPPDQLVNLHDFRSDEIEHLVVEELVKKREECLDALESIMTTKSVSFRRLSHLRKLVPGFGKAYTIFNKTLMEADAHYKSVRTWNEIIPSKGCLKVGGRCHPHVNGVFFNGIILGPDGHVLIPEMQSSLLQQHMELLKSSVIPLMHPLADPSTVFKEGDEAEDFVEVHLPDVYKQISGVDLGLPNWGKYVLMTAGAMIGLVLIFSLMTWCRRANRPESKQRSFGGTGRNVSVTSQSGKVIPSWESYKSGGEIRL

B1: CRJB (antibody, V domains shown)
VH: QITLKETGPTLVKPTQTLTLTCTFSGFSLSTSGVGVGWIRQPPGKALEWVTLIYWDDDKRYSPSLENRVTIRKDTSKNQVALTMTNMDPLDTGTYYCAHRQHISSFPWFDSWGQGTLVTVSS
VL: SYVLTQPPSVSVAPGKTARINCGGNNIEYRSVHWYQQKSGQAPVAVIYDNSDRPSGIPERFSGSKSGNTATLTISRVEAGDEADYYCQVWDISSDVVFGGGTKLTVLG
B2: CR57 (antibody, V domains shown)
VH: QVQLVQSGAEVKKPGSSVKVSCKASGGTFNRYTVNWVRQAPGQGLEWMGGIIPIFGTANYAQRFQGRLTITADESTSTAYMELSSLRSDDTAVYFCARENLDNSGTYYYFSGWFDPWGQGTLVTVSS
VL: QSALTQPRSVSGSPGQSVTISCTGTSSDIGGYNFVSWYQQHPGKAPKLMIYDATKRPSGVPDRFSGSKSGNTASLTISGLQAEDEADYYCCSYAGDYTPGVVFGGGTKLTVLG
B3: CR04-010 (antibody, V domains shown)
VH: QVQLVESGGDLVQPGRSLRLSCAASGFTFSSYGMHWVRQAPGKGLEWVADISYDGSNKYYADSVKGRFTISRDNSKNTLYLQMNSLRAEDTAVYYCAKDGLDLTGTIQPFGYWGQGTLVTVSS
VL: AIQMTQSPSSLSASVGDRVTITCRASQGIRNDLGWYQQKPGKAPKLLIYAASSLQSGVPSRFSGSGSGTDFTLTISSLQPEDFATYYCLQDYNYPRTFGQGTKVEIKR
B4: CR04-098 (antibody, V domains shown)
VH: QVQLVESGGGAVQPGRSLRLSCAASGFTFSSYGMHWVRQAPGKGLEWVAVILYDGSDKFYADSVKGRFTISRDNSKNTLYLQMNSLRAEDTAVYYCAKVAVAGTHFDYWGQGTLVTVSS
VL: DIQMTQSPSSLSASVGDRVTITCRASQGIRNDLGWYQQKPGKAPKLLIYAASSLQSGVPSRFSGSGSGTDFTLTISSLQPEDFATYYCQQLNSYPPTFGGGTKVEIKT

Legend:
[1] = target: T1, rabies virus glycoprotein (G protein) …; experiment: cell-based or functional assay
[2] = target: purified rabies virus glycoprotein (rabies virus ERA strain) (rabies virus strain ERA, UniProt P03524 20-524); experiment: SPR (BIAcore3000), ERA glycoprotein amine-coupled to CM5 chip, antibody injected

| Binder | Neutralizing potency (modified RFFIT) [1] [IU/mg] | Kd [2] [nM] |
| --- | --- | --- |
| B1 | 605 | – |
| B2 | 3800 | – |
| B3 | 3000 | – |
| B4 | – | 4.5 |
